Earlier results, collected in patent US20050119762A1, “Hydrogel providing cell-specific ingrowth” (priority 2003, published 2005).

Columns and labels:
MMP-9 [1] = target: T1, MMP-9 (Homo sapiens, UniProt P14780); conditions: peptides based on phage clones
T1 construct: a recombinant form of the catalytic domain of MMP-9 expressed in HEK 293 cells; host or cells: HEK 293 cells

MMP-9 [2] = target: T1, MMP-9; conditions: phage clones selected by MMP-9; for % Hydrolysis 1: experiment 1; for % Hydrolysis 2: experiment 2
MMP-2 [3] = target: T2, MMP-2 (Homo sapiens, UniProt P08253); conditions: synthesized peptides, reciprocal plots
T2 sequence (P08253 110-660): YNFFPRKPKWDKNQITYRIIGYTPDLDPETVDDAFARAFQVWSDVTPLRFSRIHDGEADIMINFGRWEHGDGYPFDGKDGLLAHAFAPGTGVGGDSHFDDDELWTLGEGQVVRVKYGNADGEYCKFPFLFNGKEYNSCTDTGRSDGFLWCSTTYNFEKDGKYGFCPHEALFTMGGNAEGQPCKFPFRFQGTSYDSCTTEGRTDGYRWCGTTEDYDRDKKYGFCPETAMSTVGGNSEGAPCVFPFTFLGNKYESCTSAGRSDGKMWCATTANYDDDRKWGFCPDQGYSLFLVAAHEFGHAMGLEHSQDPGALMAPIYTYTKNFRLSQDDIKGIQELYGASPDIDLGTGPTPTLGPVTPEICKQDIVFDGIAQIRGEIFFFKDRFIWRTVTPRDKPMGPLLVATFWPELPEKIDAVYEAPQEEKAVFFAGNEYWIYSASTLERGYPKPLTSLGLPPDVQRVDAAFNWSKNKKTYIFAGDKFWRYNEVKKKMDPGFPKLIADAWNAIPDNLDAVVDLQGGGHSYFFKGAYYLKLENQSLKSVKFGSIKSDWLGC

MMP-2 [4] = target: T2, MMP-2; conditions: phage substrate clones hydrolysed by activated MMP-2; for % Hydrolysis exp 1: experiment 1; for % Hydrolysis exp 2: experiment 2
MMP-2 [5] = target: T2, MMP-2

T1 sequence (P14780 107-444 limits assumed): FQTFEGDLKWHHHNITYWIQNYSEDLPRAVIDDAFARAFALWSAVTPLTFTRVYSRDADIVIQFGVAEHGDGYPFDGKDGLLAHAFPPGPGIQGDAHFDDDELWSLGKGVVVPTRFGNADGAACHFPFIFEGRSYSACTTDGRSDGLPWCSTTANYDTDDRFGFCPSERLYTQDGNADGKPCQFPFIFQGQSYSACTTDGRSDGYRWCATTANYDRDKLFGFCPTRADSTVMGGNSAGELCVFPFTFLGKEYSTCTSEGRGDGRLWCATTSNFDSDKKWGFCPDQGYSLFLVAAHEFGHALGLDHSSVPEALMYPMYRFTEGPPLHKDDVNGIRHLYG

Substance	MMP-9 kcat (MMP-9 [1]) [S^−1]	% Hydrolysis 1 (MMP-9 [2]) [%]	% Hydrolysis 2 (MMP-9 [2]) [%]	MMP-2 kcat (MMP-2 [3]) [s⁻¹]	% Hydrolysis exp 1 (MMP-2 [4]) [%]	% Hydrolysis exp 2 (MMP-2 [4]) [%]	also measured
SGKIPRT ↓ LTA (SGKIPRTLTA; peptide substrate based on phage clones) [Peptide A11]	86.4	100	100				
SG ↓ LKALMITA (SGLKALMITA; peptide substrate based on phage clones) [Peptide A7]	30	79.8	76				
SGAVSW ↓ LLTA (SGAVSWLLTA; peptide sequence based on phage clones) [Peptide A13]		78.9	72	105	100	93	
SGANISD ↓ LTA (SGANISDLTA; peptide substrate based on phage clones) [Peptide B37]				353	97	95	
GCRDSGESLAYYTADRCG							hydrolysis by MMP-2 (MMP-2 [5]): sensitive to hydrolysis
SGPRA ↓ VSTTA (SGPRAVSTTA; peptide substrate based on phage clones) [Peptide A6]	178	100	99		30	44	
SGRSLSR ↓ LTA (SGRSLSRLTA; peptide substrate based on phage clones) [Peptide C9]				740	100	100	
SGNRYSS ↓ LTA (SGNRYSSLTA; peptide substrate based on phage clones) [Peptide A34]				202	100	100	
SGESLAY ↓ YTA (SGESLAYYTA; peptide substrate based on phage clones) [Peptide B74]				622	81	90	
SGFGSRY ↓ LTA (SGFGSRYLTA; peptide substrate based on phage clones) [Peptide A19]	11	45	50				
SGLRPAK ↓ STA (SGLRPAKSTA; peptide substrate based on phage clones) [Peptide A18]	78	28.9	30				
SGRR ↓ LLSRTA (SGRRLLSRTA; peptide substrates based on phage clones) [Peptide A16]		20.2	11				
SGKGPRQ ↓ ITA (SGKGPRQITA; peptide substrate based on phage clones) [Peptide C15]	703	100	98				
SGHMHKA ↓ LTA (SGHMHKALTA; peptide substrate based on phage clones) [Peptide A21]				124	30	49	
SGLRLAA ↓ ITA (SGLRLAAITA; peptide substrates based on phage clones) [Peptide B49]				510	100	100	
SGESPAY ↓ YTA (SGESPAYYTA; peptide substrate based on phage clones) [Peptide B74P]				264			
SGAKPRA ↓ LTA (SGAKPRALTA; peptide substrate based on phage clones) [Peptide A3]				400			
SGKIPRT ↓ ATA (SGKIPRTATA; peptide substrate based on phage clones) [Peptide A11m2]	9.4						
SGKIPRR ↓ LTA (SGKIPRRLTA; peptide substrate based on phage clones) [Peptide A11m1]	224						
SGHMHAA ↓ LTA (SGHMHAALTA; peptide substrate based on phage clones) [Peptide A21A]				601			
SGESLRY ↓ YTA (SGESLRYYTA; peptide substrate based on phage clones) [Peptide B74R]				61			
SGAPSW ↓ LLTA (SGAPSWLLTA; peptide substrate based on phage clones) [Peptide A13P]				204			
SGRR ↓ LIHHTA (SGRRLIHHTA; peptide substrates based on phage clones) [Peptide C11]		94.9	74				
SGAVRW ↓ LLTA (SGAVRWLLTA; peptide substrate based on phage clones) [Peptide A13R]				28			
SGRSLRR ↓ LTA (SGRSLRRLTA; peptide substrate based on phage clones) [Peptide C9R]				302			
SGPLF ↓ YSVTA (SGPLFYSVTA; peptide substrate based on phage clones) [Peptide A10]	20	100	100		36	40	
SGQPHY ↓ LTTA (SGQPHYLTTA; peptide substrate based on phage clones) [Peptide B1]	9	79.6	85				
